Laboratory results from article PMC2605743, “Lipid bilayer composition influences small multidrug transporters” (BMC Biochemistry, 2008).

How the values were obtained:
EmrE = biological target: T1, EmrE (Escherichia coli, UniProt P23895); test: isothermal titration calorimetry; format: binding
T1 construct: dimer by TPP stoichiometry

[1] = test system: C[n+]1ccc(-c2cc[n+](C)cc2)cc1; test: purified protein; details: labelled compound; DOPC liposomes without added DOPG; pH gradient (inside 7.5, outside 8); saturation incomplete, estimate

T1 sequence (P23895 whole entry): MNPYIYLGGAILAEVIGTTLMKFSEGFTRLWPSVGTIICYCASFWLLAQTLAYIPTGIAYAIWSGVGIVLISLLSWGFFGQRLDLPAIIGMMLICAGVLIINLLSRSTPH

## c1ccc([P+](c2ccccc2)(c2ccccc2)c2ccccc2)cc1 [TPP]
EmrE
  Kd: 36 nM

## EmrE (Escherichia coli K-12)
[1]
  Km: 1100 ± 500 µM
  Vmax: 2 µmol/min
